Data from patent US20240269276A1 (HARBOUR BIOMED SHANGHAI, published 2024).
Like-named read-outs stand apart in the source and are kept apart here.

T1: human CD73 on CHO-K1 cells overexpressing human CD73 (human, UniProt P21589 27-549)
T1 construct: whole, on cells; also called CHO-K1-hCD73
T1 sequence (looked up): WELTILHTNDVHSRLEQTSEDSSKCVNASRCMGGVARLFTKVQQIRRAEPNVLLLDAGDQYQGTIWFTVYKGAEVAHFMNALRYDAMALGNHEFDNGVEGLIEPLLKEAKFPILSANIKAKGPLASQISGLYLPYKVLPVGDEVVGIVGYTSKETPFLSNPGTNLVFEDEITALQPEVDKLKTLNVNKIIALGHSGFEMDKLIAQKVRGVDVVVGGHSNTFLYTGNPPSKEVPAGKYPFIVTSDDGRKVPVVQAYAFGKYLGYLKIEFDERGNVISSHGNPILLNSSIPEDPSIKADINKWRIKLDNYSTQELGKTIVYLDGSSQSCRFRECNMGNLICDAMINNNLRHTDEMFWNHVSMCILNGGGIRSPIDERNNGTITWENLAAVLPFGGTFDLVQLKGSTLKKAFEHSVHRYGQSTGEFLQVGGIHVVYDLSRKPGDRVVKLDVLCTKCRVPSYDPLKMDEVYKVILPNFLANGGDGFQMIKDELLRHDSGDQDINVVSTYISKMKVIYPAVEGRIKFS

B1: PR000846 (antibody, human IgG1, kappa, L234A L235A, V domains shown)
VH: QVQLVESGGGVAQPGRSLSLSCAASGFTFSDYGMHWVRQAPGKGLEWVALIWYDASFEYYADSVKGRFSISRDNSKNTLYLQMNSLRAEDTAVYYCVRDAQWGSRLDYWGQGTLVTVSS
VL: KIVMTQSPATLSLSPGERATLSCRASQSVSRYLAWYQQKPGQAPRLLIYDASNRATGIPARFSGSGSGTDFTLTISSLEPEDFAVYYCQQRSNWIFTFGPGTKVDIKR
notes: Anti-CD73 IgG (human IgG1 constant region, human Ig kappa), PTM removed; also called anti-CD73 antibody PR000846; parent monoclonal antibody PR000846
B2: PR002082 (antibody, human IgG1, V domains shown)
VH: QVQLVESGGGVVQPGMSLRLSCAASGFTFSSYGMYWVRQAPGKGQEWVAIIWYDGTKKHYADSVKGRFTISRDNSKNTLYLEMNSLRVEDTAVYYCAKNRAIFGVVPDASDIRGQGTMVTVSS
notes: HCAb; also called PTM variant of PR000960 (N28T, N31S)

How the values were obtained:
[1] = target: T1, human CD73 on CHO-K1 cells …; experiment: flow cytometry on CHO-K1 cells overexpressing human CD73 (CHO-K1-hCD73)
Description: (§1) In order to investigate the binding activity of the CD73×PD-L1 bispecific antibody to human CD73 and PD-L1, the binding experiment at the cellular level was performed using CHO-K1 cell strains overexpressing human CD73 or PD-L1 (CHO-K1-hCD73 or CHO-K1-hPD-L1). Briefly, the CHO-K1-hCD73 and CHO-K1-hPD-L1 cells were digested and resuspended in an F-12K complete medium, and the cell density was adjusted to 1×10⁶ cells/mL. The cells were seeded in a 96-well V-bottom plate (Corning, #3894) at 100 μL/well, followed by the addition at 100 μL/well and centrifugation at 500 g at 4° C. for 5 min, and then the supernatant was discarded. Antibodies were 3-fold diluted to a maximum final concentration of 50 nM, and a total of 8 concentrations were set. 100 μL of the diluted antibodies was added to the cells, and the cells were incubated away from light at 4° C for 1 h. Thereafter, the cells in each well were rinsed twice with 100 μL of pre-cooled PBS, and centrifuged at 500 g at 4° C. for 5 min, and then the supernatant was discarded. Then 100 μL of a fluorescent secondary antibody (goat anti-human IgG (H+L) secondary antibody, Alexa Fluor® 488 conjugate, Invitrogen, #A11013, diluted at the ratio of 1:1000) was added to each well. The plate was incubated away from light at 4° C. for 30 min. The cells in each well were then rinsed twice with 200 μL of pre-cooled PBS and centrifuged at 500 g at 4° C. for 5 min, and then the supernatant was discarded. Finally, the cells in each well were resuspended in 200 μL of pre-cooled PBS, and the fluorescence signal values were read using a BD FACS CANTOII.

[2] = target: T1, human CD73 on CHO-K1 cells …; experiment: flow cytometry on CHO-K1 cells overexpressing human CD73 (CHO-K1-hCD73) [continued) D]
Description: as §1, with “The plate was incubated away from light at 4° C. for 30 min. The cells in each well were then rinsed twice with 200 μL of pre-cooled PBS and centrifuged at 500 g at 4° C. for 5 min, and then the supernatant was discarded.” left out

[3] = target: T1, human CD73 on CHO-K1 cells …; experiment: flow cytometry on CHO-K1 cells overexpressing human CD73 (CHO-K1-hCD73) [continued) C]
Description: as §1, with “The plate was incubated away from light at 4° C. for 30 min. The cells in each well were then rinsed twice with 200 μL of pre-cooled PBS and centrifuged at 500 g at 4° C. for 5 min, and then the supernatant was discarded.” left out

[4] = target: T2, human PD-L1 protein with histidine tag (ACROBiosystems #PD-1-H5258) (human, UniProt Q9NZQ7 19-238); experiment: BLI (Octet Red96e); His-tagged human PD-L1 captured on HIS1K sensor, antibody at 60 nM; 1:1 fit
T2 construct: Bought protein; also called His PD-L1; human PD-L1 proteins; not shown: histidine tag
Description: In this example, affinity determination was performed on the affinity-matured mutants of PR002082 using an Octet Red96e instrument. […] The binding kinetics between the antigen and the antibody was analyzed by the biolayer interferometry (BLI) technique using an Octet molecular interaction analyzer (ForteBio, model: Octet Red96e).
When the affinity of the antigen for the antibody was determined, the rotation speed of the sensor was set at 1000 rpm/min. The 2 HIS1K sensors placed in a column were first equilibrated for 10 min in test buffer, then His PD-L1 was captured with the HIS1K sensor at a capture height of 0.9-1.1 nm, then the HIS1K sensor was equilibrated for 2 min in the test buffer, then the HIS1K sensor was bound to the antigen-binding protein (60 nM and 0 nM) for 3 min, and finally the mixture was dissociated for 15 min. The HIS1K sensor was immersed in a 10 mM glycine solution (pH 1.5) for regeneration to elute the proteins bound to the sensor.
When data analysis was performed using Octet Data Analysis software (Fortebio, version 11.0), the reference signals were subtracted by a single reference mode (reference well), the data were fitted by a “1:1 Local/full fitting” method, and the kinetic parameters of the binding of the antigen to the antibody were calculated to obtain Kₒₙ (1/Ms) values, Kdis (1/s) values and KD (M) values.

[5] = target: T3, human PD-L1 on CHO-K1 cells overexpressing human PD-L1 (human, UniProt Q9NZQ7 19-290); experiment: flow cytometry on CHO-K1 cells overexpressing human PD-L1 (CHO-K1/hPD-L1) [continued) D]
T3 construct: whole, on cells; also called CHO-K1/hPD-L1; CHO-K1-hPD-L1
Description: (§2) In the example, in order to study the in vitro binding activity of the PD-L1 antigen-binding protein to human/cynomolgus monkey PD-L1, cell-level binding experiments were performed using CHO-K1 cell strains overexpressing human PD-L1 (CHO-K1/hPD-L1, GenScript, M00543) or CHO-K1 cell strains overexpressing cynomolgus monkey PD-L1 (CHO-K1/cynoPD-L1, GenScript, M00573). Briefly, the PD-L1 cells were digested and resuspended in an F-12K complete medium, and the cell density was adjusted to 1×10⁶ cells/mL. The cells were seeded in a 96-well V-bottom plate (Corning, 3894) at 100 μL/well, followed by the addition of the test antigen-binding proteins serially diluted 5-fold with concentrations that were twice the final concentrations at 100 μL/well. The mixtures were well mixed. The highest final concentration of the antigen-binding proteins was 100 nM. A total of 8 concentrations were set. An isotype antibody hIgG1 iso was used as a control. The cells were incubated away from light at 4° C. for 1 h. Thereafter, the cells in each well were rinsed twice with 100 μL of pre-cooled PBS, and centrifuged at 500 g at 4° C. for 5 min, and then the supernatant was discarded. Then 100 μL of a fluorescent secondary antibody (goat anti-human IgG (H+L) secondary antibody, Alexa Fluor 488 conjugate, Invitrogen, A11013, diluted at the ratio of 1:1000) was added to each well. The plate was incubated away from light at 4° C. for 30 min. The cells in each well were then rinsed twice with 200 μL of pre-cooled PBS and centrifuged at 500 g at 4° C. for 5 min, and then the supernatant was discarded. Finally, a pre-cooled PBS was added at 200 μL/well to resuspend the cells. Fluorescence signal values were read using a BD FACS CANTOII. Fluorescence signal values were read using a flow cytometer BD FACS CANTOII or FACS ACEA, and the data were processed and analyzed using FlowJo v10 (FlowJo, LLC) software. The data were processed and analyzed by plotting using GraphPad Prism 8 software, and binding curves, EC50 values and other parameters were acquired through four-parameter nonlinear fitting.

[6] = target: T3, human PD-L1 on CHO-K1 cells …; experiment: flow cytometry on CHO-K1 cells overexpressing human PD-L1 (CHO-K1-hPD-L1) [continued) F]
Description: as §1, with “The plate was incubated away from light at 4° C. for 30 min. The cells in each well were then rinsed twice with 200 μL of pre-cooled PBS and centrifuged at 500 g at 4° C. for 5 min, and then the supernatant was discarded.” left out

[7] = target: T4, cynomolgus monkey PD-L1 on CHO-K1 cells overexpressing cynomolgus monkey PD-L1 (cynomolgus monkey, UniProt G7PSE7 19-290); experiment: flow cytometry on CHO-K1 cells overexpressing cynomolgus monkey PD-L1 (CHO-K1/cynoPD-L1)
T4 construct: also called CHO-K1/cynoPD-L1; GenScript M00573
Description: as §2

[8] = target: T3, human PD-L1 on CHO-K1 cells …; experiment: flow cytometry on CHO-K1 cells overexpressing human PD-L1 (CHO-K1/hPD-L1) [continued) F]
Description: as §2

[9] = target: T3, human PD-L1 on CHO-K1 cells …; experiment: flow cytometry on CHO-K1 cells overexpressing human PD-L1 (CHO-K1/hPD-L1)
Description: as §2

[10] = target: T4, cynomolgus monkey PD-L1 on CHO-K1 cells …; experiment: flow cytometry on CHO-K1 cells overexpressing cynomolgus monkey PD-L1 (CHO-K1/cynoPD-L1); remark: listed apart in the source
Description: as §2

[11] = target: T3, human PD-L1 on CHO-K1 cells …; experiment: flow cytometry on CHO-K1 cells overexpressing human PD-L1 (CHO-K1/hPD-L1) [continued) E]
Description: as §2

[12] = target: T3, human PD-L1 on CHO-K1 cells …; experiment: flow cytometry on CHO-K1 cells overexpressing human PD-L1 (CHO-K1-hPD-L1) [continued) E]
Description: as §1, with “The plate was incubated away from light at 4° C. for 30 min. The cells in each well were then rinsed twice with 200 μL of pre-cooled PBS and centrifuged at 500 g at 4° C. for 5 min, and then the supernatant was discarded.” left out

T4 sequence (G7PSE7 entry or part of it limits assumed): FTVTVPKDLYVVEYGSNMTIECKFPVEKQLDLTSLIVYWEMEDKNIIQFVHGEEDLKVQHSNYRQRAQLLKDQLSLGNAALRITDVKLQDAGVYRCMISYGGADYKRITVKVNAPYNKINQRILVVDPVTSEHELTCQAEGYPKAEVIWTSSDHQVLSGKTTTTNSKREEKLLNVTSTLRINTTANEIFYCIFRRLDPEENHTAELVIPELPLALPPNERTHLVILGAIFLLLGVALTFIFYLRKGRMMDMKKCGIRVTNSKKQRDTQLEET
T2 sequence (Q9NZQ7 19-238 limits assumed): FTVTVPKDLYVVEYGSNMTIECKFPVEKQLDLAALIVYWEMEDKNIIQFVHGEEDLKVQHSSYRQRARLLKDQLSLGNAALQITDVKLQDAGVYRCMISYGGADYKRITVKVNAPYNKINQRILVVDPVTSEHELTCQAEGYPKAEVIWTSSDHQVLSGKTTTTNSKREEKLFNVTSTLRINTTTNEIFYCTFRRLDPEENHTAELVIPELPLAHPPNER
T3 sequence (Q9NZQ7 19-290): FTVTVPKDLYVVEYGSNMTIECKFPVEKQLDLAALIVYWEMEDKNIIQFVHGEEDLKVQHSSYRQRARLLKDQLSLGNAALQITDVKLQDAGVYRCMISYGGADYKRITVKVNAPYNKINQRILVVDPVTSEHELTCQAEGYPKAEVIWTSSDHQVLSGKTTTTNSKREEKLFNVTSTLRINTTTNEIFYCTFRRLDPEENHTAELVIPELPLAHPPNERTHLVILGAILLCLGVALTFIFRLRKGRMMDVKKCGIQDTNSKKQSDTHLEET

Binder	EC50 [1] [nM]	EC50 [2] [nM]	EC50 [3] [nM]	Kd [4] [nM]	koff [4] [s⁻¹]	kon [4] [M⁻¹ s⁻¹]	EC50 [5] [nM]	Maximum MFI [5] [MFI]	EC50 [6] [nM]	EC50 [7] [nM]	EC50 [8] [nM]	Maximum MFI [8] [MFI]	EC50 [9] [nM]	Maximum MFI [9] [MFI]	EC50 [10] [nM]	Maximum MFI [10] [MFI]	EC50 [11] [nM]	Maximum MFI [11] [MFI]	EC50 [12] [nM]
B1	0.352	0.737	1.73																
B2				5.61	0.00118	210000	1.23	387000	2.93	0.386	1.31	430000	0.86	24500	1.52	12100	1.24	381000	1.17
